Data from patent publication US20220348651A1 (Novartis, published 2022).
Substitutions are numbered along the chain they refer to.

T1: human ENTPD2 expressed on cells (human, UniProt Q9Y5L3 1-495)
T1 construct: full-length human ENTPD2 on engineered cells; also called NIH3T3 humanENTPD2; NIH/3T3-hENTPD2
T1 sequence: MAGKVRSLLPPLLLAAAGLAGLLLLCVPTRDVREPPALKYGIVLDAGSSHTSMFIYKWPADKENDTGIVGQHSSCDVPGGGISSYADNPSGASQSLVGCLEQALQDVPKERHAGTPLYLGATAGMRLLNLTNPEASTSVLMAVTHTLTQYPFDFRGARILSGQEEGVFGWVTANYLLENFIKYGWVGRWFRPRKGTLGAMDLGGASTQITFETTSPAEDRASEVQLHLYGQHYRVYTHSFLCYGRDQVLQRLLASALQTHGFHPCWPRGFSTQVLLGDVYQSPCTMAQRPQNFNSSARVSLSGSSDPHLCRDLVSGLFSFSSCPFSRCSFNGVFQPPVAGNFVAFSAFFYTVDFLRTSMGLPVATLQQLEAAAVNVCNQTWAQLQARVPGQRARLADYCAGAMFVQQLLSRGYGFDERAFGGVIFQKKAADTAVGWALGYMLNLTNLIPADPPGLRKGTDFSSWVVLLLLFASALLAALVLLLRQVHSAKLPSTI

T2: recombinant monomeric mouse ENTPD2 extracellular domain (residues 29-462) with His6 tag (mouse, UniProt O55026 29-462)
T2 sequence: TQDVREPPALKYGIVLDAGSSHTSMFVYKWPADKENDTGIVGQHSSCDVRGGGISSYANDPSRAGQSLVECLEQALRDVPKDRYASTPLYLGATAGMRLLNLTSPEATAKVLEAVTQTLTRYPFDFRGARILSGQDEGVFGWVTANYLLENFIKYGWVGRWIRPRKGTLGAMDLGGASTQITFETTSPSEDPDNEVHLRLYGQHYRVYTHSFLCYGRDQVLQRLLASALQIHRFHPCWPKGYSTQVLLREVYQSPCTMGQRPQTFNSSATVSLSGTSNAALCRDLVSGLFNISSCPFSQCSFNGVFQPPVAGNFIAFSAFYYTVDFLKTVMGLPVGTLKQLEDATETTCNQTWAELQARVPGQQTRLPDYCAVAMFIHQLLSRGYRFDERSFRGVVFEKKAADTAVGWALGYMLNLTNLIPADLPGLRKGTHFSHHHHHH

T3: Human ENTPD1 (NP_001767) expressed on NIH/3T3 cells (human, UniProt P49961 1-510)
T3 construct: also called NIH/3T3-ENTPD1; CD39
T3 sequence: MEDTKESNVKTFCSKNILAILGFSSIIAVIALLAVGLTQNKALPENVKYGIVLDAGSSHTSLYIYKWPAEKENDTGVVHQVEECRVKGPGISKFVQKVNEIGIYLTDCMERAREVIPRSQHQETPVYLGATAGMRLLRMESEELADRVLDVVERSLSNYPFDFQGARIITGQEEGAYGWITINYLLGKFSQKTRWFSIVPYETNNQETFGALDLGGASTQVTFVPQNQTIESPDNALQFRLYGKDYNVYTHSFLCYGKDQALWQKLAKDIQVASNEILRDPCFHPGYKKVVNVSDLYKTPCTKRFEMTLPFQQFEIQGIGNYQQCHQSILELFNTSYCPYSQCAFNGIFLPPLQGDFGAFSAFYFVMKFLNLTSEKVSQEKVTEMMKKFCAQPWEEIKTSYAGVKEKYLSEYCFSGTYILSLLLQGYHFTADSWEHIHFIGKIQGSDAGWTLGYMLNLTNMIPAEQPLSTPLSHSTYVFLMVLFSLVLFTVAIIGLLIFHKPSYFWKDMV

T4: recombinant cyno ENTPD2 extracellular domain (residues 29-462) with C-terminal Avi-His6 tag (cynomolgus macaque, UniProt Q9Y5L3 29-462 (human entry))
T4 construct: also called cynomologus (cyno) ENTPD2 ECD
T4 chain (part 1 of 2): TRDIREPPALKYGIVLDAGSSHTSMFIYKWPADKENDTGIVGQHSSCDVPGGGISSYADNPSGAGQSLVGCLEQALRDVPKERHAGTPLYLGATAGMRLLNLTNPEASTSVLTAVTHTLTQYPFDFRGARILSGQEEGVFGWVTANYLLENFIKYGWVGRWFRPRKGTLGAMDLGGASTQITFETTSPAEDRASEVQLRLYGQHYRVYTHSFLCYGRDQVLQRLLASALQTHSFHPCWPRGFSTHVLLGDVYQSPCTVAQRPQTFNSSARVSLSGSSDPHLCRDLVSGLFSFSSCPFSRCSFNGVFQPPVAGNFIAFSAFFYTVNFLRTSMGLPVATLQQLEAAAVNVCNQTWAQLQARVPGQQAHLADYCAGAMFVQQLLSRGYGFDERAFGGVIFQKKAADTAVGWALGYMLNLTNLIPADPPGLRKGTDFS
T4 chain (part 2 of 2): HHHHHH

B1: ANTI-HUMAN ENTPD2 MAB1 (antibody, human IgG1, kappa)
heavy: not shown
light: DIQLTQSPSSLSASVGDRVTITCSASSSVSYIHWFQQKPGKAPKLLIYSTSNLASGVPSRFSGSGSGTFFTLTISSLQPEDFATYFCHQWSSYPWTFGQGTKVEIKRTVAAPSVFIFPPSDEQLKSGTASVVCLLNNFYPREAKVQWKVDNALQSGNSQESVTEQDSKDSTYSLSSTLTLSKADYEKHKVYACEVTHQGLSSPVTKSFNRGEC
notes: humanized from mAb17; human IgG1, kappa; also called anti-ENTPD2 mAb1
B2: ANTI-HUMAN ENTPD2 MAB8 (antibody, human IgG1, lambda, V domains shown)
VH: QVQLQQSGPGLVKPSQTLSLTCAISGDSVSSSSAAWNWIRQSPSRGLEWLGRIYYRSKWYNDYAVSVKSRITINPDTSKNQFSLQLNSVTPEDTAVYYCARGSYVTSSYEGFDYWGQGTLVTVSS
VL: SYELTQPLSVSVALGQTARITCSGDNLPEKYAYWYQQKPGQAPVLVIYDDNKRPSGIPERFSGSNSGNTATLTISRAQAGDEADYYCQSYGKWGWTWVFGGGTKLTVLG
notes: also called Anti-ENTPD2 mAb8
B3: ANTI-HUMAN ENTPD2 MAB2 (antibody, human IgG1, kappa)
heavy: not shown
light: EIVLTQSPATLSASPGERITLSCSASSSVSYIHWYQQKPGQAPRLLIYSTSNLASGIPARFSGSGSGTFYTLTISSVEPEDAAVYYCHQWSSYPWTFGGGTKLEIKRTVAAPSVFIFPPSDEQLKSGTASVVCLLNNFYPREAKVQWKVDNALQSGNSQESVTEQDSKDSTYSLSSTLTLSKADYEKHKVYACEVTHQGLSSPVTKSFNRGEC
notes: humanized from mAb17; human IgG1, kappa; also called Anti-ENTPD2 mAb2
B4: ANTI-HUMAN ENTPD2 MAB3 (antibody, human IgG1, kappa, V domains shown)
VH: QVQLVQSGAEVVKPGASVKISCKASGYTFTDYNMDWVKQAPGQRLEWIGDINPKYDISTYNQQFKGKATITVDTSASTAYMELSSLRSEDTAVYYCARRGFFLYYGINYYYFDVWGQGTLVTVSS
VL: EIVLTQSPATLSASPGERITLSCSASSSVSYIHWYQQKPGQAPRLLIYSTSNLASGIPARFSGSGSGTFYTLTISSVEPEDAAVYYCHQWSSYPWTFGGGTKLEIKR
notes: humanized from mAb17; human IgG1, kappa; also called Anti-ENTPD2 mAb3
B5: ANTI-HUMAN ENTPD2 MAB7 (antibody, human IgG1, kappa)
heavy: not shown
light: B3 light with R18E
notes: humanized from mAb17; human IgG1, kappa; also called Anti-ENTPD2 mAb7
B6: ANTI-HUMAN ENTPD2 MAB4 (antibody, human IgG1, kappa, V domains shown)
VH: QIQLQESGPGLVKPSQTLSLTCTVSGYSITSGYYWNWIRQHPGKGLEWIGYISYDADNNYNPSLKNRVTISRDTSKNQFSLKLSSVTAADTAVYYCAGGYYRYGLGSYRGSYYYVMDYWGQGTTVTVSS
VL: ETVLTQSPATLSVSPGERATISCKASQSVDYEGHSYMNWYQQKPGQAPRLLIYAASNLESGIPARFSGSGSGTDFTLTISSVEPEDAATYYCQQSNEDPPTFGGGTKLEIKR
notes: humanized and optimized from mAb16; human IgG1, kappa; also called Anti-ENTPD2 mAb4
B7: ANTI-HUMAN ENTPD2 MAB6 (antibody, human IgG1, kappa, V domains shown)
VH: B6 VH with I2V, I49M, V68I, R109S
VL: DTQMTQSPSSLSVSVGDRATITCKASQSVDYEGHSYMNWYQQKPGKAPKLLIYAASNLESGVPSRFSGSGSGTDFTLTISSVQPEDFATYYCQQSNEDPPTFGGGTKLEIKR
notes: humanized and optimized from mAb16; human IgG1, kappa; also called Anti-ENTPD2 mAb6
B8: ANTI-HUMAN ENTPD2 MAB5 (antibody, human IgG1, kappa, V domains shown)
VH: B6 VH
VL: B6 VL with E32D, H34N
notes: humanized and optimized from mAb16; human IgG1, kappa; also called Anti-ENTPD2 mAb5

target: T1, human ENTPD2 expressed on cells; assay: flow cytometry, NIH3T3 human ENTPD2 cells

Row | EC50 [nM] | Binder
1 | 1.5 | B1
2 | 0.6 | B2
3 | 2.1 | B3
4 | 2.8 | B4
5 | 0.5 | B5
6 | 0.9 | B6
7 | 0.9 | B7
8 | 0.9 | B8

target: T2, recombinant monomeric mouse ENTPD2 …; assay: SPR Biacore

Row | binding result | Binder
9 | no binding | B1
10 | binds | B2
11 | no binding | B3
12 | no binding | B4
13 | no binding | B5
14 | no binding | B6
15 | no binding | B7
16 | no binding | B8

target: T3, Human ENTPD1 (NP_001767) expressed on …; assay: flow cytometry, NIH/3T3-ENTPD1 cells

Row | binding result | Binder
17 | no binding (tested: 50 nM) | B1
18 | no binding (tested: 50 nM) | B3
19 | no binding (tested: 50 nM) | B4
20 | no binding (tested: 50 nM) | B5
21 | no binding (tested: 50 nM) | B6
22 | no binding (tested: 50 nM) | B7
23 | no binding (tested: 50 nM) | B8

target: T1, human ENTPD2 expressed on cells; assay: flow cytometry, RKO cells (endogenous ENTPD2)
Procedure: FACS screening: Specific binding of candidate antibodies to endogenously expressed ENTPD2 was assessed by flow cytometry. […] Geometric mean fluorescence intensity was calculated on live single cells using FlowJo software.

Row | EC50 [nM] | Binder
24 | 0.9 | B1
25 | 0.3 | B2
26 | 1.3 | B3
27 | 2.1 | B4
28 | 0.4 | B5
29 | 0.5 | B6
30 | 0.4 | B7
31 | 0.4 | B8

target: T5, recombinant human ENTPD2 extracellular domain (residues 29-462) with C-terminal Avi-His6 tag (human, UniProt Q9Y5L3 29-462, biotinylated on the AviTag in the epitope binning assay); assay: SPR Biacore, mAb captured, ECD analyte, 25C
T5 construct: also called human ENTPD2 ECD; Human ENTPD2-Avi-His6 protein
Procedure: (§1) Biacore Screening: Affinity was measured by determining the kinetic rate constants using surface plasmon resonance (SPR) on a Biacore T200 or T100 with the T200 sensitivity upgrade instrument (Biacore, GE Healthcare). Antibodies were captured on CM5 sensor chips (Biacore, GE Healthcare) prepared with a mouse anti-human IgG Fc antibody (ThermoFisher catalogue #05-4200) amine coupled to the surface. […] ENTPD2 analytes were allowed to associate for 180 s and dissociate for up to 1800 s depending on the off-rate of the antibody at a flow rate of 30 μL/min. The running buffer was PBS pH 7.2 (prepared from a Corning 10X stock, cat#46-013-CM)+0.05% Tween 20. […] The raw data were analyzed using Biacore T200 Evaluation Software version 1.0 and fit to a 1:1 binding model, with all parameters set to fit globally except for RI, which was set to fit locally.

Row | Kd [nM] | koff [s⁻¹] | kon [M⁻¹ s⁻¹] | Binder
32 | 1.7 | 0.00019 | 110000 | B1
33 | 3.3 | 0.00094 | 290000 | B2
34 | 1.7 | 0.00018 | 110000 | B3
35 | 1.3 | 0.00016 | 130000 | B4
36 | 0.9 | 0.00019 | 210000 | B5
37 | 0.7 | 0.00022 | 300000 | B6
38 | 0.7 | 0.00026 | 350000 | B7
39 | 0.6 | 0.00016 | 270000 | B8

Target: T4, recombinant cyno ENTPD2 extracellular …
Assay: SPR Biacore, mAb captured, ECD analyte, 25C
Procedure: as §1

Row | Kd [nM] | koff [s⁻¹] | kon [M⁻¹ s⁻¹] | Binder
40 | 3.4 | 0.0012 | 360000 | B1
41 | 81.1 | 0.024 | 300000 | B2
42 | 2.8 | 0.0012 | 430000 | B3
43 | 2.2 | 0.00098 | 450000 | B4
44 | 1.1 | 0.0012 | 1.2e+06 | B5
45 | 42.1 | 0.0057 | 140000 | B6
46 | 35.6 | 0.01 | 290000 | B7
47 | 10.7 | 0.003 | 290000 | B8
